Experimental data as given in patent US20030003461.

Molecular target: TGFβ1 (Homo sapiens) (UniProt P01137)
Test: filter
Details: 2'-F pyrimidines, 3' fixed sequence removed

TGFβ1 (Homo sapiens), sequence (P01137 279-390): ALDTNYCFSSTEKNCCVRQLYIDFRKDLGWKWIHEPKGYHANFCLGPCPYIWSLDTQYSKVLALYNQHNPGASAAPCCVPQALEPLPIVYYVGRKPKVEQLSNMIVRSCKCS

Row | Sequence | Kd (plateau 15%) [nM] | other results
1 | GGGAGCGGAAUUUUUGUGUAGACGUAUGCCGCUUUGNCCAGACGACUCGCCCGA [30NtruNc 37] | 0.083 | –
2 | GGGAGAGGGGUCUGGAAUUUUUGGNUUACCCGUACGCCAGACGACUCGCCCGA [30NtruNc 9] | – | Kd (plateau 20%): 0.1 nM
3 | GGGAGANCUGGUAAUUUUGGUUUANCCGUAUNCCCAGACGACUCGCCCGA [30NtruNc 32] | 22 | –
4 | GGGAGGGUUAACCGUUAAGACGGCGUNAUUUUGUCCCCAGACGACUCGCCCGA [30NtruNc 7] | – | Kd (plateau 25%): 2 nM
